The values that follow come from patent US20240294646A1.

The target in assay [1] is Soluble FcγRIIaR extracellular domain with C-terminal 10xHis tag (UniProt P12318). In words: SPR, antibody captured on HER2, receptor as analyte; affinity fold over wild-type v16463.
Assay [2] addresses Soluble FcγRIIb extracellular domain with C-terminal 10xHis tag (UniProt P31994). The assay is described as above.
For assay [3] the target is unchanged. In words: SPR; IIb/IIaR selectivity against control v27294.
Assay [4] shares this target. Briefly: SPR; IIb-Fold / IIaR-Fold (FcγRIIb over FcγRIIaR). A general note: SPR reads the build-up and loss of mass on a sensor chip optically.
Assay [5] shares this target. In words: SPR; FcγRIIb affinity fold against control v27294.

Soluble FcγRIIb extracellular domain with C-terminal 10xHis tag, sequence (P31994 other isoform, or with tags, fused parts or gaps): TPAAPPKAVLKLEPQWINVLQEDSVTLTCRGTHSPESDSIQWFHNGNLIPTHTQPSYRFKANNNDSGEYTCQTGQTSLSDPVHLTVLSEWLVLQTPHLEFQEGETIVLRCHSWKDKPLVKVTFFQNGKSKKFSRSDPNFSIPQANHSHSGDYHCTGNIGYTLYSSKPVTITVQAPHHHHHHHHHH
Soluble FcγRIIaR extracellular domain with C-terminal 10xHis tag, sequence (P12318 other isoform, or with tags, fused parts or gaps): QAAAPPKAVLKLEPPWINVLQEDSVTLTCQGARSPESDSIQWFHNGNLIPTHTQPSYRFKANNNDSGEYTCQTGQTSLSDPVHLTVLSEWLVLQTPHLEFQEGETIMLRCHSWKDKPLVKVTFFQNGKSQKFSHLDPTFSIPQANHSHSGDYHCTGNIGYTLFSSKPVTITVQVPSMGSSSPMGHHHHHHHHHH

Take “Variant v26740, A_P271D_strat2, one-armed trastuzumab antibody”: the IIaR-fold in assay [1] is 3.4 fold. In assay [2], the IIb-Fold amounted to 50.5 fold. Besides, the IIb Selectivity Improvement wrt Control in assay [3] stood at 1.1 fold. Also, in assay [4], the IIb Selectivity was 14.9 fold. The substance also had an IIb-Fold wrt Control in assay [5] of 0.5 fold.

“Variant v26756, A_E272N_strat2, one-armed trastuzumab antibody”: the IIaR-fold in assay [1] worked out at 3.6 fold. In assay [2], the IIb-Fold amounted to 57.6 fold. The substance also returned an IIb Selectivity Improvement wrt Control in assay [3] of 1.2 fold. Moreover, in assay [4], the IIb Selectivity amounted to 15.8 fold. The IIb-Fold wrt Control in assay [5] was 0.6 fold.

Consider “Variant v26730, A_P271V_strat2, one-armed trastuzumab antibody”, for which the IIaR-fold in assay [1] was 3.6 fold. In assay [2], this substance displayed an IIb-Fold of 54.4 fold. This substance returned an IIb Selectivity Improvement wrt Control in assay [3] of 1.1 fold. The same substance displayed an IIb-Fold wrt Control in assay [5] of 0.6 fold.

“Variant v26748, A_E272L_strat2, one-armed trastuzumab antibody”: in assay [1], the IIaR-fold stood at 5.3 fold. In addition, in assay [2], the IIb-Fold came out at 81.3 fold. In assay [3], the IIb Selectivity Improvement wrt Control was 1.1 fold. In assay [4], this substance came in with an IIb Selectivity of 15.2 fold. In addition, the IIb-Fold wrt Control in assay [5] was determined as 0.9 fold.

In the case of “Variant v26722, A_D270N_strat2, one-armed trastuzumab antibody”, the IIaR-fold in assay [1] came out at 4 fold. Besides, the IIb-Fold in assay [2] was 67.4 fold. For the same substance, the IIb Selectivity Improvement wrt Control in assay [3] turned out to be 1.3 fold. The same substance returned an IIb Selectivity in assay [4] of 16.7 fold. In addition, the IIb-Fold wrt Control in assay [5] is 0.7 fold.

For the substance “Variant v26760, A_E272H_strat2, one-armed trastuzumab antibody”, in assay [1], the IIaR-fold came out at 4.9 fold. In assay [2], the IIb-Fold came to 74.1 fold. Also, in assay [3], the IIb Selectivity Improvement wrt Control was 1.1 fold. The substance further registered an IIb Selectivity in assay [4] of 15.3 fold. In assay [5], this substance yielded an IIb-Fold wrt Control of 0.8 fold.

In turn, “Variant v26743, A_P271K_strat2, one-armed trastuzumab antibody” showed an IIaR-fold in assay [1] of 4.3 fold. In assay [2], this substance came in with an IIb-Fold of 55.7 fold. For the same substance, the IIb Selectivity Improvement wrt Control in assay [3] came to 1 fold. The substance further returned an IIb Selectivity in assay [4] of 12.9 fold. In addition, the IIb-Fold wrt Control in assay [5] turned out to be 0.6 fold.

“Variant v26723, A_D270E_strat2, one-armed trastuzumab antibody”: the IIaR-fold in assay [1] came to 7.3 fold. The same substance gave an IIb-Fold in assay [2] of 109 fold. Also, the IIb Selectivity Improvement wrt Control in assay [3] is 1.1 fold. The substance also yielded an IIb-Fold wrt Control in assay [5] of 1.2 fold.

The substance “Variant v26721, A_D270Q_strat2, one-armed trastuzumab antibody” yielded an IIaR-fold in assay [1] of 3.6 fold. Besides, the IIb-Fold in assay [2] is 51.7 fold. In addition, the IIb Selectivity Improvement wrt Control in assay [3] amounted to 1.1 fold. Further, the IIb Selectivity in assay [4] came out at 14.6 fold. In assay [5], the IIb-Fold wrt Control was 0.6 fold.

Consider “Variant v26728, A_P271G_strat2, one-armed trastuzumab antibody”, for which the IIaR-fold in assay [1] came out at 4.8 fold. The IIb-Fold in assay [2] is 65.4 fold. In addition, the IIb Selectivity in assay [4] came to 13.5 fold. Further, the IIb-Fold wrt Control in assay [5] is 0.7 fold.

“Variant v26738, A_P271Q_strat2, one-armed trastuzumab antibody” registered an IIaR-fold in assay [1] of 4 fold. Besides, the IIb-Fold in assay [2] was 56.1 fold. The same substance came in with an IIb Selectivity Improvement wrt Control in assay [3] of 1.1 fold. In assay [4], this substance showed an IIb Selectivity of 14.1 fold. This substance had an IIb-Fold wrt Control in assay [5] of 0.6 fold.

In turn, “Variant v26732, A_P271I_strat2, one-armed trastuzumab antibody” displayed an IIaR-fold in assay [1] of 4.4 fold. In assay [2], this substance displayed an IIb-Fold of 56.9 fold. Further, the IIb Selectivity in assay [4] is 12.9 fold. Besides, the IIb-Fold wrt Control in assay [5] came out at 0.6 fold.

Consider “Variant v26716, A_D270F_strat2, one-armed trastuzumab antibody”, for which the IIaR-fold in assay [1] worked out at 6.4 fold. In assay [2], this substance yielded an IIb-Fold of 86.7 fold. For the same substance, in assay [3], the IIb Selectivity Improvement wrt Control was determined as 1 fold. In assay [4], this substance yielded an IIb Selectivity of 13.5 fold. The IIb-Fold wrt Control in assay [5] was 0.9 fold.

For “Variant v26742, A_P271R_strat2, one-armed trastuzumab antibody”, the IIaR-fold in assay [1] came out at 4.4 fold. In assay [2], the IIb-Fold was 47.1 fold. Besides, the IIb Selectivity Improvement wrt Control in assay [3] was 0.8 fold. The same substance registered an IIb Selectivity in assay [4] of 10.7 fold. Further, the IIb-Fold wrt Control in assay [5] stood at 0.5 fold.

On to “Variant v26744, A_P271H_strat2, one-armed trastuzumab antibody”, for which the IIaR-fold in assay [1] worked out at 3.9 fold. For the same substance, the IIb-Fold in assay [2] was 59.3 fold. The substance further showed an IIb Selectivity Improvement wrt Control in assay [3] of 1.1 fold. The same substance came in with an IIb Selectivity in assay [4] of 15.1 fold. Further, in assay [5], the IIb-Fold wrt Control stood at 0.6 fold.

“Variant v26734, A_P271W_strat2, one-armed trastuzumab antibody”: the IIaR-fold in assay [1] was 4.3 fold. In addition, the IIb-Fold in assay [2] was 52.5 fold. This substance displayed an IIb Selectivity Improvement wrt Control in assay [3] of 0.9 fold. Also, in assay [4], the IIb Selectivity stood at 12.3 fold. The IIb-Fold wrt Control in assay [5] turned out to be 0.6 fold.

For “Variant v26731, A_P271L_strat2, one-armed trastuzumab antibody”, in assay [1], the IIaR-fold is 4.5 fold. This substance had an IIb-Fold in assay [2] of 66.6 fold. In assay [3], the IIb Selectivity Improvement wrt Control is 1.1 fold. Further, the IIb Selectivity in assay [4] worked out at 14.7 fold. The IIb-Fold wrt Control in assay [5] was determined as 0.7 fold.

In assay [1], “Variant v26717, A_D270W_strat2, one-armed trastuzumab antibody” yielded an IIaR-fold of 3.7 fold. Also, the IIb-Fold in assay [2] turned out to be 53.5 fold. For the same substance, in assay [3], the IIb Selectivity Improvement wrt Control worked out at 1.1 fold. Moreover, the IIb Selectivity in assay [4] worked out at 14.5 fold. Also, the IIb-Fold wrt Control in assay [5] is 0.6 fold.

With “Variant v26750, A_E272F_strat2, one-armed trastuzumab antibody”, the IIaR-fold in assay [1] stood at 4.5 fold. Further, in assay [2], the IIb-Fold stood at 61.2 fold. Further, the IIb Selectivity Improvement wrt Control in assay [3] stood at 1 fold. In assay [4], this substance displayed an IIb Selectivity of 13.5 fold. The IIb-Fold wrt Control in assay [5] was determined as 0.7 fold.

On to “Variant v26719, A_D270T_strat2, one-armed trastuzumab antibody”, for which, in assay [1], the IIaR-fold came out at 4.9 fold. This substance also yielded an IIb-Fold in assay [2] of 64.2 fold. In assay [3], this substance yielded an IIb Selectivity Improvement wrt Control of 1 fold. This substance displayed an IIb Selectivity in assay [4] of 13.2 fold. Also, in assay [5], the IIb-Fold wrt Control was determined as 0.7 fold.

Substance “Variant v26746, A_E272A_strat2, one-armed trastuzumab antibody” registered an IIaR-fold in assay [1] of 4.5 fold. Moreover, the IIb-Fold in assay [2] came out at 70.8 fold. The substance further had an IIb Selectivity Improvement wrt Control in assay [3] of 1.2 fold. Besides, the IIb Selectivity in assay [4] was 15.9 fold. Also, the IIb-Fold wrt Control in assay [5] was determined as 0.8 fold.

As for “Variant v26745, A_E272G_strat2, one-armed trastuzumab antibody”, the IIaR-fold in assay [1] amounted to 4.5 fold. This substance returned an IIb-Fold in assay [2] of 51.6 fold. The substance further showed an IIb Selectivity Improvement wrt Control in assay [3] of 0.9 fold. The same substance displayed an IIb Selectivity in assay [4] of 11.6 fold. This substance also had an IIb-Fold wrt Control in assay [5] of 0.6 fold.

“Variant v26726, A_D270H_strat2, one-armed trastuzumab antibody” displayed an IIaR-fold in assay [1] of 4.1 fold. Besides, the IIb-Fold in assay [2] amounted to 61.7 fold. The same substance had an IIb Selectivity Improvement wrt Control in assay [3] of 1.1 fold. In assay [4], this substance returned an IIb Selectivity of 14.9 fold. Also, the IIb-Fold wrt Control in assay [5] amounted to 0.7 fold.

On to “Variant v26754, A_E272S_strat2, one-armed trastuzumab antibody”, for which the IIaR-fold in assay [1] stood at 4.1 fold. In assay [2], this substance yielded an IIb-Fold of 61 fold. Moreover, the IIb Selectivity Improvement wrt Control in assay [3] stood at 1.1 fold. In addition, in assay [4], the IIb Selectivity was determined as 14.7 fold. In addition, the IIb-Fold wrt Control in assay [5] was 0.7 fold.

In assay [1], “Variant v26741, A_P271E_strat2, one-armed trastuzumab antibody” came in with an IIaR-fold of 5.1 fold. The same substance had an IIb-Fold in assay [2] of 59.3 fold. The substance further gave an IIb Selectivity Improvement wrt Control in assay [3] of 0.9 fold. Also, the IIb Selectivity in assay [4] was 11.7 fold. Besides, the IIb-Fold wrt Control in assay [5] worked out at 0.6 fold.

“Variant v26720, A_D270S_strat2, one-armed trastuzumab antibody” gave an IIaR-fold in assay [1] of 3.9 fold. The same substance showed an IIb-Fold in assay [2] of 49.5 fold. This substance also had an IIb Selectivity Improvement wrt Control in assay [3] of 0.9 fold. In assay [4], this substance yielded an IIb Selectivity of 12.7 fold. In assay [5], the IIb-Fold wrt Control was 0.5 fold.

“Variant v26739, A_P271N_strat2, one-armed trastuzumab antibody”: the IIaR-fold in assay [1] stood at 3.4 fold. The substance also returned an IIb-Fold in assay [2] of 50.9 fold. The substance further had an IIb Selectivity Improvement wrt Control in assay [3] of 1.1 fold. The substance further gave an IIb Selectivity in assay [4] of 14.9 fold. This substance also displayed an IIb-Fold wrt Control in assay [5] of 0.5 fold.

For the substance “Variant v26718, A_D270Y_strat2, one-armed trastuzumab antibody”, the IIaR-fold in assay [1] stood at 4.5 fold. This substance also yielded an IIb-Fold in assay [2] of 54.6 fold. In assay [3], this substance yielded an IIb Selectivity Improvement wrt Control of 0.9 fold. The substance also gave an IIb Selectivity in assay [4] of 12.1 fold. The substance also registered an IIb-Fold wrt Control in assay [5] of 0.6 fold.

In turn, “Variant v26749, A_E272I_strat2, one-armed trastuzumab antibody” had an IIaR-fold in assay [1] of 6.1 fold. In assay [2], this substance gave an IIb-Fold of 83.8 fold. The substance also displayed an IIb Selectivity Improvement wrt Control in assay [3] of 1 fold. In addition, in assay [4], the IIb Selectivity was 13.7 fold. Also, the IIb-Fold wrt Control in assay [5] stood at 0.9 fold.

Substance “Variant v26712, A_D270A_strat2, one-armed trastuzumab antibody” gave an IIaR-fold in assay [1] of 3.8 fold. Also, the IIb-Fold in assay [2] worked out at 49.9 fold. In assay [3], this substance gave an IIb Selectivity Improvement wrt Control of 1 fold. Besides, the IIb Selectivity in assay [4] came out at 13 fold. This substance showed an IIb-Fold wrt Control in assay [5] of 0.5 fold.

In assay [1], “Variant v26753, A_E272T_strat2, one-armed trastuzumab antibody” returned an IIaR-fold of 4.3 fold. The IIb-Fold in assay [2] was determined as 62.8 fold. Also, the IIb Selectivity Improvement wrt Control in assay [3] turned out to be 1.1 fold. The IIb Selectivity in assay [4] was found to be 14.7 fold. For the same substance, in assay [5], the IIb-Fold wrt Control is 0.7 fold.
